In PMC5902328:

Substrate: N
Assay: purified protein
Conditions: aminating direction, co-substrate Fru6P, saturating, no GlcNAc6P activator, 37 °C

B1: Amuc-NagB (Akkermansia muciniphila ATCC BAA-835) (protein)
chain: MIGVESSRVMRAAPRKAVGRVEASVPWDFSRKYAAVHHSGTISVENARKRSKIGRVMKVETFETPQDAAKALAGEVAELIRTRAAEGKNVVLGLATGATPLPFYAELVRMHKEEGLSFANVISFNLDEYSGLDRDHPESYWYFMHTNLFNHIDIKPENINLPSGTVKDDEIAAHCAAYEQKIKDCGGIDLQILGIGRTGHIGFNEPGSDDTTVTRQVHLDELTRSDAAPAFGGIENVPTTAITMGVATIMGAREVALMAWGEKKASIVKKAVQGPVTVDVAASYLQKHPNAKFLLDKGAASLL
Protein B1 has a Km of 41.3 ± 12.8 mM.
